Laboratory results taken from US20210388097A1 (SORRENTO THERAPEUTICS, published 2021).

Assays:
[1] = target: T1, his-tagged human BCMA protein (ACROBiosystems, catalog # BCA-H522y-100 ug) (human, UniProt Q02223 1-54); test: SPR (Biacore T200), antibody captured on anti-human Fc chip, his-tagged human BCMA as analyte
T1 construct: limits of the bought construct are not otherwise stated; also called recombinant his-tagged human BCMA; not shown: his tag of the bought protein
T1 sequence: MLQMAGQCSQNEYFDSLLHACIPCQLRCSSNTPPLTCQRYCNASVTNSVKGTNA
Protocol: (§1) Binding kinetics of anti-BCMA antibodies with his-tagged human BCMA protein (ACROBiosystems, catalog # BCA-H522y-100 ug, UniProt Q02223-1, SEQ ID NO:92) was measured using surface plasmon resonance (SPR). Kinetic interactions between the antibodies and his-tagged BCMA proteins were measured at 25° C. using Biacore T200 surface plasmon resonance (GE Healthcare). Anti-human fragment crystallizable region (Fc region) antibody was immobilized on a CM5 sensor chip to approximately 8000 resonance units (RU) using standard N-hydroxysuccinimide/N-Ethyl-N′-(3-dimethylaminopropyl) carbodiimide hydrochloride (NHS/EDC) coupling methodology. The anti-BCMA antibody (2 μg/mL) was captured for 60 seconds at a flow rate of 10 μL/minute. The his-tagged BCMA protein was run at […] different dilutions of 3.12, 6.25, 12.5, 25, 50, 100 and 200 nM, in a running buffer of 0.01 M HEPES pH 7.4, 0.15 M NaCl, 3 mM EDTA, 0.05% v/v Surfactant P20 (HBS-EP+). The 25 nM BCMA protein run was measured two times. All measurements were conducted in HBS-EP+ buffer with a flow rate of 30 μL/minute. A 1:1 (Langmuir) binding model was used to fit the data. […]
(§2) Cross reactivity of two of the anti-BCMA antibodies, BCA7-2C5 and BCA7-2E1, with his-tagged human, cynomolgus or mouse BCMA protein were analyzed by SPR in the manner as described above. […]

BCMA on MM1R cells = target: T2, BCMA on MM1R cells (human, UniProt Q02223); test: flow cytometry on MM1R cells, 5x serial dilution, FITC goat anti-human IgG F(ab')2, GeoMean BL1-H
T2 construct: full length, on the surface of MM1R multiple myeloma cells; also called MM1R multiple myeloma cell line
T2 sequence (receptor, looked up): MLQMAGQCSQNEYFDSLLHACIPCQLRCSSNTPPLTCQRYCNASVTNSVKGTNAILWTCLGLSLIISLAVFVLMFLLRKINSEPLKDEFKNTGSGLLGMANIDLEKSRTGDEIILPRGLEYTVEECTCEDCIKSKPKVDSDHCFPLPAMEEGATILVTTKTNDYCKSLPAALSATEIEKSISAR
Text: Flow cytometry was used to test antibody binding to multiple myeloma cell line MM1R, using various anti-BCMA antibodies (5× serial dilution) and 80,000 cells per well. The secondary antibody was FITC AffiniPure FAB2 fragment goat anti-human IgG (H+L) (from Jackson Immuno Research). […] A BL-1 detector (IntelliCyt iQue Screener Plus) which detects at 530 nm was used. The geometric mean is reported.

[2] = target: T3, his-tagged cynomolgus BCMA protein (ACROBiosystems, catalog # BCA-052H7) (cynomolgus, UniProt A0A2K5UD97 1-53); test: SPR (Biacore T200), antibody captured on anti-human Fc chip, his-tagged cynomolgus BCMA as analyte
T3 construct: Bought protein; also called cyno BCMA; not shown: his tag
T3 sequence (A0A2K5UD97 entry or part of it): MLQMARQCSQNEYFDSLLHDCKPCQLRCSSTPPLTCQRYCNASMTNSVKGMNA
Protocol: as §1, §2

[3] = target: T1, his-tagged human BCMA protein …; test: SPR (Biacore T200), antibody captured on anti-human Fc, his-tagged human BCMA as analyte; fit with ka1/kd1/ka2/kd2 (model not named)
Protocol: Binding kinetics of anti-BCMA antibodies with his-tagged human BCMA protein (ACROBiosystems, catalog # BCA-H522y-100 ug, UniProt Q02223-1, SEQ ID NO:92) was measured using surface plasmon resonance (SPR). Kinetic interactions between the antibodies and his-tagged BCMA proteins were measured at 25° C. using Biacore T200 surface plasmon resonance (GE Healthcare). Anti-human fragment crystallizable region (Fc region) antibody was immobilized on a CM5 sensor chip to approximately 8000 resonance units (RU) using standard N-hydroxysuccinimide/N-Ethyl-N′-(3-dimethylaminopropyl) carbodiimide hydrochloride (NHS/EDC) coupling methodology. The anti-BCMA antibody (2 μg/mL) was captured for 60 seconds at a flow rate of 10 μL/minute. The his-tagged BCMA protein was run at […] different dilutions of 3.12, 6.25, 12.5, 25, 50, 100 and 200 nM, in a running buffer of 0.01 M HEPES pH 7.4, 0.15 M NaCl, 3 mM EDTA, 0.05% v/v Surfactant P20 (HBS-EP+). The 25 nM BCMA protein run was measured two times. All measurements were conducted in HBS-EP+ buffer with a flow rate of 30 μL/minute. […] The SPR sensorgrams of anti-BCMA antibodies BCA7, GSK J6M0, BC4C9 and BC5C4 are shown in FIGS. 1, 2, 3 and 4, respectively, and their corresponding binding kinetics are listed in Table 3.
Binding kinetics of optimized anti-BCMA antibodies BCA7-2C5, BCA7-2D11, BCA7-2G2, BCA7-2E1, BCA7-2D8 and BCA7-2E8, with his-tagged human BCMA protein (ACROBiosystems, catalog # BCA-H522y-100 ug), were analyzed in the manner as described above.

B1: BCA7-2C5 antibody (antibody, V domains shown)
VH: EVQLVESGGGLVKPGGSLRLSCAASGFTSSTAWMSWVRQAPGKGLEWVGRIKSKSDGGTTDYAAPVKGRFTISRDDSKNTLFLQMNSLKTEDTAVYYCAKGGGTYGYWGQGTTVTVSS
VL: QSALTQPASVSGSPGQSVTISCTGTSSAHGGHYYVSWYQQHPGKAPKLMIYDVSNRPSGVSNRFSGSKSGNTASLTISGLQAEDEADYYCGSYTSSGSYVFGTGTKLTVL
Kd [1]: 0.0194 µM
EC50 (read off the curve) (BCMA on MM1R cells): ~0.08 mg/L
Kd [2]: 0.057 µM
Kd [3]: 0.0194 µM
ka1 [3]: 1.37e+06 M⁻¹ s⁻¹
ka2 [3]: 0.000847 s⁻¹
kd1 [3]: 0.0422 s⁻¹
kd2 [3]: 0.00145 s⁻¹
